Test results taken from patent US20250027068A1 (published 2025).

target: pooled human IgG (human IgG1, 2, 3 and 4) (human); assay: cell-based or functional assay
Further: test concentration or dose not given here.

Binder	Enzyme Activity Endpoint Assay: Fab′2 [ng/µL]	Enzyme Activity Endpoint Assay: Fc [ng/µL]	Enzyme Activity Endpoint Assay: IgG [ng/µL]	Enzyme Activity Endpoint Assay: scIgG [ng/µL]
PRT-396 (enzyme) MVTSVWTKGVTPPADFTQGEDVFHAPYVANQGWYDITKTFNGKDDLLCGAATAGNMLHWWFDQNKEYIEAYLKKHPEKQKIMFGDQELLDVRKAINTKGSQKNSELFNYFRDKAFPNLSARRLGVMPDLVLDMFINGYYLNVTKTQTTDVNRTYQEKDKRGGIFDAVFTRGDQSKLLTSRHDFKEKGLKEISDLIKQELTEGKALGLSHTTANVRINHVINLWGADFDSDGNLKAIYVTDSDSNASIGMKKYFVGVNSAGKVAISAKEIKEDNIGAQVLGLFTLSTGQDIWNQTN	0	92	1010	215
PRT-380 (enzyme) MVTSVWTKGVTPPTNFTYGEDVLHAPYVANQGWYDITKTFNGKDDLLCGAATAGNMLHWWFDQNKEQIENYLKKHPEKQKINFNGEQMFDVKEAIDTKDSQLDSKLFEYFKEKAFPYLSTKHLGVFPDHVIDMFINGYRLSLTNHGPTPVKRGSKDPRGGIFDAVFTRGDQSKLLTNRHDFKEKTLKEISDLIKQELTEGKALGISHTYANARINHVINLWGADFDAEGNLEAIYVTDSDSNASIGMKKYFVGVNSNGKVAISAKEIEEDNIGAQVLGLFTLSTGQDIWNQTN	66	258	219	702
PRT-388 (enzyme) MVTSVWTKGVTPPTNFTYGEDVLHAPYVANQGWYDITKTFNGKDTLLCGAATAGNMLHWWFDQNKEQIENYLKKHPEKQKINFNGEQMFDVKEAIDTKDSQLDSKLFEYFKEKAFPYLSTKHLGVFPDHVIDMFINGYRLSLTNHGPTPVKRGSKDPRGGIFDAVFTRGDQSKLLTNRHDFKEKTLKEISDLIKQELTEGKALGISHTYANVRINHVINLWGADFDAEGNLEAIYVTDSDSNASIGMKKYFVGVNSNGKVAISAKEIEEDNIGAQVLGLFTLSTGQDIWNQTN	481	338	34	222
PRT-419 (enzyme) MTITSVWTKGVTPPTPEDFRYNNEDVLHAPYVANQGWYDITKTFDGKDNLLCGAATAGNMLHWWFDQNKEEIERYLKKHPEKQKIIFNNQELFDVKAAIDTKDSQTNSKLFNYFRDKAFPNLSARQLGVMPDLVLDMFINGYYLNLGKTQSTDVNRPYQDKDKRGGIFDAVFTRGDQTTLLTARHDLKNKGLNEISDLIKQELTEGKALALSHTYANVRINHVINLWGADFDAEGNLIAIYVTDSDANASIGMKKYFVGVNANGKVAISAKKIEGDNIGAQVLGLFTLSTGQDQWQKLS	528	298	183	0
PRT-427 (enzyme) MTITSVWTKGVTPPTPEDFRYNNEDVLHAPYVANQGWYDITKTFDGKDNLLCGAATAGNMLHWWFDQNKEEIERYLKKHPEKQKIIFNNQELFDVKAAIDTKDSQTNSKLFNYFRDKAFPNLSARQLGVMPDLVLDMFINGYYLNLGKTQSTDVNRPYQDKDKRGGIFDAVFTRGVQTTLLTARHDLKNKGLNEISDLIKQELTEGKALALSHTYANVRINHVINLWGADFDAEGNLIAIYVTDSDANASIGMKKYFVGVNANGKVAISAKKIEGDNIGAQVLGLFTLSTGQDIWQKLS	537	352	135	139
